Source: publication PMC9454698

Molecular target: stanniocalcin 2 (STC2), recombinant (mouse) (UniProt O88452)
Assay: quartz crystal microbalance (QCM); STC2 (50 µg/mL) immobilised by amine coupling on LNB chip, Attana Cell 200; HRG injected at 50, 100 and 200 nM; PBS running buffer, 10 µL/min, 22 °C, 500 s dissociation; 1:1 global interaction model

UniProt O88452, sequence (O88452 25-296): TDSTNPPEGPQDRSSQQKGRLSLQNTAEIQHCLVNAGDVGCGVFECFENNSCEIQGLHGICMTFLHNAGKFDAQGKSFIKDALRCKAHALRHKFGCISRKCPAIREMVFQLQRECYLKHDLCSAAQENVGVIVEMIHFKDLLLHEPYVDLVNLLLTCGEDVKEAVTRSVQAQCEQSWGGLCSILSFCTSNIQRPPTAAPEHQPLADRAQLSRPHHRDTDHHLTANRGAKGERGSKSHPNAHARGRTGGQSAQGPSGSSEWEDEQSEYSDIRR

Kd: 55 nM
koff: 0.0014 s⁻¹
kon: 26000 M⁻¹ s⁻¹
Substance: histidine-rich glycoprotein (HRG), recombinant, active (from UniProt Q9ESB3 19-525) (natural protein)
